Data: PMC3510516
pKd: −log10 of the molar value.

Legend:
Experiment in all cases: fluorescence anisotropy
[1] = test system: GyrA CTD lacking GyrA-box (Bacillus subtilis); settings: CTD: 50 mM Tris-HCl, 40 mM KCl (Results say NaCl), 10 mM MgCl2, 25 C (pH not stated), 100 nM DNA; gyrase: 50 mM Tris-HCl pH 7.5, 100 mM KCl, 10 mM MgCl2, 37 C …
[2] = test system: GyrA CTD (Bacillus subtilis); settings: CTD: 50 mM Tris-HCl, 40 mM KCl (Results say NaCl), 10 mM MgCl2, 25 C (pH not stated), 100 nM DNA; gyrase: 50 mM Tris-HCl pH 7.5, 100 mM KCl, 10 mM MgCl2, 37 C …
[3] = test system: GyrA lacking GyrA-box (GyrA_dA);GyrB (Bacillus subtilis;Bacillus subtilis); settings: 4 uM GyrB, 10 mM Mg2+, 37 C; CTD: 50 mM Tris-HCl, 40 mM KCl (Results say NaCl), 10 mM MgCl2, 25 C (pH not stated), 100 nM DNA; gyrase: 50 mM Tris-HCl pH 7.5, 100 mM KCl, 10 mM MgCl2, 37 C …
[4] = test system: GyrA;GyrB (Bacillus subtilis;Bacillus subtilis); settings: 4 uM GyrB, 10 mM Mg2+, 37 C; CTD: 50 mM Tris-HCl, 40 mM KCl (Results say NaCl), 10 mM MgCl2, 25 C (pH not stated), 100 nM DNA; gyrase: 50 mM Tris-HCl pH 7.5, 100 mM KCl, 10 mM MgCl2, 37 C …

Substance | pKd [1] | pKd [2] | pKd [3] | pKd [4]
40-bp DNA wrapping substrate | 4.88 | 4.88 |  | 
60-bp gate-DNA |  |  | 7.30 | 7.20
